Assay [1] addresses T1, hu N(A2-B2)A-avi-His (human, biotin on the avi tag where used biotinylated).
T1 construct: chimeric soluble antigen; also called hu N(A2-B2)A-avi-His B; human CEA (A2 domain)
T1 chain: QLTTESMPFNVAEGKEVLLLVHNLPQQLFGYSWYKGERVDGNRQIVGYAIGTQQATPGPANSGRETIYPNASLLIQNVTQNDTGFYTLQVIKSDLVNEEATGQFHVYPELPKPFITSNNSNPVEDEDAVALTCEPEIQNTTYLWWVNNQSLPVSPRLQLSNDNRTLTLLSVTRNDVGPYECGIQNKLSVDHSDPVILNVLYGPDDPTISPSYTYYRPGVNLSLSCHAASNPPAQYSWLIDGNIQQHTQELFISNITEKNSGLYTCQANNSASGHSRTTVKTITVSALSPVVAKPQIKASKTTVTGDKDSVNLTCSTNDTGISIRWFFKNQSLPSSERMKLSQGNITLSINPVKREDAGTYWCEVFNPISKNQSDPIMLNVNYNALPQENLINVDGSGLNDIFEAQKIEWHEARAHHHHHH
The experiment in a line: SPR (Biacore T200), antigen on CM5 chip, Fab as analyte. From the text: Data were double-referenced against the unimmobilized flow cell 1 and a zero concentration of the analyte. The sensorgrams of the analytes were fitted to a simple 1:1 Langmuir interaction model.
On the technique in general: Surface plasmon resonance follows binding to a sensor surface in real time, without labels.

The target in assay [2] is T2, human CEACAM5 (carcinoembryonic antigen, CEA) on cells (human, UniProt P06731 35-685).
T2 construct: endogenous on MKN45 gastric adenocarcinoma cells; full-length cDNA stably transfected in the CHO-K1 clones; also called huCEACAM5; MKN45 cells
T2 sequence: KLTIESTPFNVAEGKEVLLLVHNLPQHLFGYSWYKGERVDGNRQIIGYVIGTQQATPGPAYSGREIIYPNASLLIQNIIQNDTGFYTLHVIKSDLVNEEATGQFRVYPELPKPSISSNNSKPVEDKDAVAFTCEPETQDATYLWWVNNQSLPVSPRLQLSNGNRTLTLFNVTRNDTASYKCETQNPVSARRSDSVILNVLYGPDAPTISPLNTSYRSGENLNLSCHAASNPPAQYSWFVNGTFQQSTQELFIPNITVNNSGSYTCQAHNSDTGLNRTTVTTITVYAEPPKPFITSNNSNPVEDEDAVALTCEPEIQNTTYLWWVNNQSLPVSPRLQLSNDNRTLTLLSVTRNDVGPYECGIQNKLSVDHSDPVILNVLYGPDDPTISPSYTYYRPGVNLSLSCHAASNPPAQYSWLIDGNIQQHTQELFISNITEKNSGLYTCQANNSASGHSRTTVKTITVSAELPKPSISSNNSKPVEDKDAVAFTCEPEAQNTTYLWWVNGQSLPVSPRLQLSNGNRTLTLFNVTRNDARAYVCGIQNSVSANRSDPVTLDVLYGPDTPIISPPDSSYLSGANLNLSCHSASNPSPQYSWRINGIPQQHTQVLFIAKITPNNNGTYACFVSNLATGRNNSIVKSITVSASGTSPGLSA
Briefly: flow cytometry, MKN-45 cells, goat F(ab')2 anti-human Fcγ-PE, gMFI. Background: A flow cytometer gives signals particle by particle.

Assay [3] concerns the target T2, human CEACAM5 (carcinoembryonic …). The experiment in a line: flow cytometry, MKN45 cells. On the set-up: AUC: unit not given beside the values.

In general, Kd refers to the free concentration of one partner at which half of the binding sites on the other are occupied at equilibrium, for simple one-to-one binding.

B1: P1AE4138 (Fab, V domains shown)
VH: EVQLLESGGGLVQPGGSLRLSCAASGFTFTDYYMNWVRQAPGKGLEWLGFIGNKANGYTTEYSASVKGRFTISRDKSKNTLYLQMNSLRAEDTATYYCTRDRGLRFYFDYWGQGTTVTVSS
VL: EIVLTQSPATLSLSPGERATLSCRASSSVTYIHWYQQKPGQAPRSWIYATSNLASGIPARFSGSGSGTDFTLTISSLEPEDFAVYYCQHWSSKPPTFGQGTKLEIK
notes: Fab fragment; Ckappa light chain; also called Fab derived from P1AE2167
For B1, the Kd in assay [1] was found to be 1.47 nM.

B2: P1AE4136 (Fab, V domains shown)
VH: EVQLLESGGGLVQPGGSLRLSCAASGFTFTDYYMNWVRQAPGKGLEWLGFIGNKANGYTTEYSASVKGRFTISRDKSKNTLYLQMNSLRAEDTATYYCTRDRGLRFYFDYWGQGTTVTVSS
VL: QTVLTQSPATLSLSPGERATLSCRASSSVTYIHWYQQKPGQAPRLLIYATSNLASGIPARFSGSGSGTDFTLTISSLEPEDFAVYYCQHWSSKPPTFGQGTKLEIK
notes: Fab fragment; also called Fab derived from P1AE2165
Consider B2, for which the Kd in assay [1] is 1.25 nM.

B3: P1AE4135 (Fab, V domains shown)
VH: EVQLLESGGGLVQPGGSLRLSCAASGFTFTDYYMNWVRQAPGKGLEWLGFIGNKANGYTTEYSASVKGRFTISRDKSKNTLYLQMNSLRAEDTATYYCTRDRGLRFYFDYWGQGTTVTVSS
VL: QTVLTQSPATLSLSPGERATLSCRASSSVTYIHWYQQKPGSSPKSWIYATSNLASGIPARFSGSGSGTDYTLTISSLEPEDFAVYYCQHWSSKPPTFGQGTKLEIK
notes: Fab fragment; also called Fab derived from P1AE2164
In turn, B3 gave a dissociation constant (Kd) in assay [1] of 1.7 nM.

B4: P1AE3112 (antibody, IgG1, V domains shown)
VH: QVQLVQSGAEVKKPGASVKVSCKASGYTFKDSYMHWVRQAPGQGLEWMGWIDPENGDTEYAPKFQGRVTMTTDTSISTAYMELSRLRSDDTAVYYCNEGTPTGPYYFDYWGQGTLVTVSS
VL: EIQMTQSPSSLSASVGDRVTITCRASQSISSYMHWYQQKPGKAPKLLIYSTSNLASGVPSRFSGSGSGTDFTLTISSLQPEDFATYYCQQRSSYPLTFGGGTKLEIK
notes: huIgG1 P329G LALA; also called MFE-H25 / MFE-L26
For B4, the binding result in assay [2] is reported as “no binding (tested: about 300 nM)”. The same molecule yielded an AUC in assay [3] of 551.

B5: P1AE3098 (antibody, IgG1, V domains shown)
VH: QVQLVQSGAEVKKPGASVKVSCKASGFNIKDSYMHWVRQAPGQGLEWMGWIDPENGDTEYAPKFQGRVTMTTDTSISTAYMELSRLRSDDTAVYYCARGTPTGPYYFDYWGQGTLVTVSS
VL: EIQMTQSPSSLSASVGDRVTITCRASSSVPYMHWLQQKPGKAPKLLIYSTSNLASGVPSRFSGSGSGTDFTLTISSVQPEDFATYYCQQRSSYPLTFGGGTKLEIK
notes: huIgG1 P329G LALA; also called MFE-H27 / MFE-L28
Regarding B5, in assay [2], the binding result is on record as “no binding (tested: about 300 nM)”. In assay [3], this molecule showed an AUC of 1190.

B6: P1AE3123 (antibody, IgG1, V domains shown)
VH: QVQLVQSGAEVKKPGASVKVSCKASGFNIKDSYMHWVRQAPGQGLEWMGWIDPENGGTNYAQKFQGRVTMTTDTSISTAYMELSRLRSDDTAVYYCNEGTPTGPYYFDYWGQGTLVTVSS
VL: DIQMTQSPSSLSASVGDRVTITCRASSSVSYMHWYQQKPGKAPKLLIYSTSNLASGVPSRFSGSGSGTDFTLTISSLQPEDFATYYCQQRSSYPLTFGGGTKLEIK
notes: huIgG1 P329G LALA; also called MFE-H26 / MFE-L24
Turning to B6, in assay [2], the binding result is “no binding (tested: about 300 nM)”. Also, the AUC in assay [3] is 1090.

B7: P1AE3122 (antibody, IgG1, V domains shown)
VH: QVQLVQSGAEVKKPGASVKVSCKASGFNIKDSYMHWVRQAPGQGLEWMGWIDPENGDTEYAPKFQGRVTMTTDTSISTAYMELSRLRSDDTAVYYCARGTPTGPYYFDYWGQGTLVTVSS
VL: DIQMTQSPSSLSASVGDRVTITCRASSSVSYMHWYQQKPGKAPKLLIYSTSNLASGVPSRFSGSGSGTDFTLTISSLQPEDFATYYCQQRSSYPLTFGGGTKLEIK
notes: huIgG1 P329G LALA; also called MFE-H27 / MFE-L24
As for B7, in assay [2], the binding result was “no binding (tested: about 300 nM)”. The AUC in assay [3] is 422.

B8: P1AE3117 (antibody, IgG1, V domains shown)
VH: QVQLVQSGAEVKKPGASVKVSCKASGFNIKDSYMHWVRQAPGQGLEWMGWIDPENGGTNYAQKFQGRVTMTTDTSISTAYMELSRLRSDDTAVYYCNEGTPTGPYYFDYWGQGTLVTVSS
VL: EIQMTQSPSSLSASVGDRVTITCRASSSVSYMHWYQQKPGKAPKLLIYSTSNLASGVPSRFSGSGSGTDFTLTISSLQPEDFATYYCQQRSSYPLTFGGGTKLEIK
notes: huIgG1 P329G LALA; also called MFE-H26 / MFE-L25
Consider B8, for which, in assay [2], the binding result is “no binding (tested: about 300 nM)”. Moreover, the AUC in assay [3] worked out at 1180.

B9: P1AE3116 (antibody, IgG1, V domains shown)
VH: QVQLVQSGAEVKKPGASVKVSCKASGFNIKDSYMHWVRQAPGQGLEWMGWIDPENGDTEYAPKFQGRVTMTTDTSISTAYMELSRLRSDDTAVYYCARGTPTGPYYFDYWGQGTLVTVSS
VL: EIQMTQSPSSLSASVGDRVTITCRASSSVSYMHWYQQKPGKAPKLLIYSTSNLASGVPSRFSGSGSGTDFTLTISSLQPEDFATYYCQQRSSYPLTFGGGTKLEIK
notes: huIgG1 P329G LALA; also called MFE-H27 / MFE-L25
On to B9, for which the binding result in assay [2] is “no binding (tested: about 300 nM)”. In addition, the AUC in assay [3] was determined as 443.

B10: P1AE3104 (antibody, IgG1, V domains shown)
VH: QVQLVQSGAEVKKPGASVKVSCKASGFNIKDSYMHWVRQAPGQGLEWMGWIDPENGDTEYAPKFQGRVTMTTDTSISTAYMELSRLRSDDTAVYYCARGTPTGPYYFDYWGQGTLVTVSS
VL: EIQMTQSPSSLSASVGDRVTITCRASSSVPYMHWYQQKPGKAPKLLIYSTSNLASGVPSRFSGSGSGTDFTLTISSVQPEDFATYYCQQRSSYPLTFGGGTKLEIK
notes: huIgG1 P329G LALA; also called MFE-H27 / MFE-L27
For the molecule B10, the binding result in assay [2] is on record as “no binding (tested: about 300 nM)”. In addition, the AUC in assay [3] was found to be 414.

B11: P1AE3118 (antibody, IgG1, V domains shown)
VH: QVQLVQSGAEVKKPGASVKVSCKASGYTFKDSYMHWVRQAPGQGLEWMGWIDPENGDTEYAPKFQGRVTMTTDTSISTAYMELSRLRSDDTAVYYCNEGTPTGPYYFDYWGQGTLVTVSS
VL: EIQMTQSPSSLSASVGDRVTITCRASSSVSYMHWYQQKPGKAPKLLIYSTSNLASGVPSRFSGSGSGTDFTLTISSLQPEDFATYYCQQRSSYPLTFGGGTKLEIK
notes: huIgG1 P329G LALA; also called MFE-H25 / MFE-L25
As to B11, the binding result in assay [2] is “no binding (tested: about 300 nM)”. This molecule yielded an AUC in assay [3] of 559.

B12: P1AE3106 (antibody, IgG1, V domains shown)
VH: QVQLVQSGAEVKKPGASVKVSCKASGYTFKDSYMHWVRQAPGQGLEWMGWIDPENGDTEYAPKFQGRVTMTTDTSISTAYMELSRLRSDDTAVYYCNEGTPTGPYYFDYWGQGTLVTVSS
VL: EIQMTQSPSSLSASVGDRVTITCRASSSVPYMHWYQQKPGKAPKLLIYSTSNLASGVPSRFSGSGSGTDFTLTISSVQPEDFATYYCQQRSSYPLTFGGGTKLEIK
notes: huIgG1 P329G LALA; also called MFE-H25 / MFE-L27
Regarding B12, the binding result in assay [2] is reported as “no binding (tested: about 300 nM)”. Also, the AUC in assay [3] amounted to 1130.

B13: P1AE3124 (antibody, IgG1, V domains shown)
VH: QVQLVQSGAEVKKPGASVKVSCKASGYTFKDSYMHWVRQAPGQGLEWMGWIDPENGDTEYAPKFQGRVTMTTDTSISTAYMELSRLRSDDTAVYYCNEGTPTGPYYFDYWGQGTLVTVSS
VL: DIQMTQSPSSLSASVGDRVTITCRASSSVSYMHWYQQKPGKAPKLLIYSTSNLASGVPSRFSGSGSGTDFTLTISSLQPEDFATYYCQQRSSYPLTFGGGTKLEIK
notes: huIgG1 P329G LALA; also called MFE-H25 / MFE-L24
With B13, in assay [2], the binding result is listed as “no binding (tested: about 300 nM)”. The AUC in assay [3] came to 847.

B14: P1AE3092 (antibody, IgG1, V domains shown)
VH: QVQLVQSGAEVKKPGASVKVSCKASGFNIKDSYMHWVRQAPGQGLEWMGWIDPENGDTEYAPKFQGRVTMTTDTSISTAYMELSRLRSDDTAVYYCARGTPTGPYYFDYWGQGTLVTVSS
VL: EIQMTQSPSSLSASVGDRVTITCRASSSVPYMHWLQQKPGKAPKLLIYSTSSLQSGVPSRFSGSGSGTDFTLTISSVQPEDFATYYCQQRSSYPLTFGGGTKLEIK
notes: huIgG1 P329G LALA; also called MFE-H27 / MFE-L29
For the molecule B14, the binding result in assay [2] is on record as “no binding (tested: about 300 nM)”. In assay [3], this molecule displayed an AUC of 482.

B15: P1AE0289 CEA (A5B7) Fab (parental murine antibody) (Fab, V domains shown)
VH: EVKLVESGGGLVQPGGSLRLSCATSGFTFTDYYMNWVRQPPGKALEWLGFIGNKANGYTTEYSASVKGRFTISRDKSQSILYLQMNTLRAEDSATYYCTRDRGLRFYFDYWGQGTTLTVSS
VL: QTVLSQSPAILSASPGEKVTMTCRASSSVTYIHWYQQKPGSSPKSWIYATSNLASGVPARFSGSGSGTSYSLTISRVEAEDAATYYCQHWSSKPPTFGGGTKLEIK
notes: Fab fragment
Turning to B15, the Kd in assay [1] was 0.559 nM.

Values taken from patent publication US20220267464A1 (Hoffmann-La Roche, published 2022).
